Literature values as cited in publication PMC8990303.
Where two headings read alike, the source gives them in different places. Blank lines part the entries; values can stand above or below the substance they belong to.

How the values were obtained:
[1] = molecular target: Porcine pancreatic alpha-amylase (PPA) (Sus scrofa) (UniProt P00690)
[2] = molecular target: Bovine trypsin (Bos taurus) (UniProt P00760)
[3] = molecular target: Yellow mealworm alpha-amylase (TMA) (Tenebrio molitor) (UniProt P56634)
UniProt P56634, sequence (P56634 whole entry): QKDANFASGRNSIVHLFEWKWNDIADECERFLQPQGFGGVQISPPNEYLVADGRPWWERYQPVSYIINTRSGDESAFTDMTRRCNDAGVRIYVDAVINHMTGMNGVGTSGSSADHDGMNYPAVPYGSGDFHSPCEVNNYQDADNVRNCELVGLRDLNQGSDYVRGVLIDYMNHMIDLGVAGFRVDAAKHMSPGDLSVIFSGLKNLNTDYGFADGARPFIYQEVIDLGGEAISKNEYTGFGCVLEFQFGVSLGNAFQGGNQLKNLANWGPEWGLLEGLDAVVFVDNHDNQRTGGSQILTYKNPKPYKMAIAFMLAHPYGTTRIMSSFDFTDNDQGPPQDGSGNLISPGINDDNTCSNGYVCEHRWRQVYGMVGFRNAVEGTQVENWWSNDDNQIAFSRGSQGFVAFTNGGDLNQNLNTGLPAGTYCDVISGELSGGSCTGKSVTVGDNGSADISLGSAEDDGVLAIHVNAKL

[4] = molecular target: Porcine alpha-amylase (Sus scrofa) (UniProt P00690)
[5] = molecular target: Porcine trypsin (Sus scrofa) (UniProt P00761)
UniProt P00761, sequence (P00761 9-231): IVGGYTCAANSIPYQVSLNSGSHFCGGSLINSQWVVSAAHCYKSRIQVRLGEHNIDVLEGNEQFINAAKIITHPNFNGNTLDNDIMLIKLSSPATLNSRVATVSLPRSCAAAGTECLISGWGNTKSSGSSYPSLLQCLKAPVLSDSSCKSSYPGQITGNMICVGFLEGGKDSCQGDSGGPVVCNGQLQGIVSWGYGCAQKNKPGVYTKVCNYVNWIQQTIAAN

[6] = molecular target: Porcine trypsin (Sus scrofa) (UniProt P00761); remark: listed apart in the source
[7] = molecular target: Porcine alpha-amylase (Sus scrofa) (UniProt P00690); remark: listed apart in the source
[8] = molecular target: Human salivary alpha-amylase (HSA) (Homo sapiens) (UniProt P0DUB6)
UniProt P0DUB6, sequence (P0DUB6 16-511): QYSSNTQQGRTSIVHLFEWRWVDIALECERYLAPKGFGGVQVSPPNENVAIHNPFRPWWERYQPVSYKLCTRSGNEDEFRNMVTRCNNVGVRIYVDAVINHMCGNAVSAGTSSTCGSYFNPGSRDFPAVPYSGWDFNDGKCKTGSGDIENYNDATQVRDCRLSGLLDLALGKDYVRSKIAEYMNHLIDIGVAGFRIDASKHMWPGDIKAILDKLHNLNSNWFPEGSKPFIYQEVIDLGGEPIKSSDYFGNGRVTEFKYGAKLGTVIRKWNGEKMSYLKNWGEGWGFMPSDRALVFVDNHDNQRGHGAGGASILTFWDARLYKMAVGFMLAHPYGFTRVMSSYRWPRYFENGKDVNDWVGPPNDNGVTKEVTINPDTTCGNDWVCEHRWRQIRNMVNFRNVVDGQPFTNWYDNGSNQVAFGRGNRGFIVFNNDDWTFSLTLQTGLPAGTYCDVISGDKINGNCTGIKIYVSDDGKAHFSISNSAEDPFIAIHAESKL

[9] = molecular target: Yellow mealworm alpha-amylase (TMA) (Tenebrio molitor) (UniProt P56634); remark: listed apart in the source
[10] = molecular target: Porcine pancreatic alpha-amylase (PPA) (Sus scrofa) (UniProt P00690); remark: listed apart in the source
[11] = molecular target: Factor XIIa (Homo sapiens) (UniProt P00748)
UniProt P00748, sequence (P00748 whole entry, looked up): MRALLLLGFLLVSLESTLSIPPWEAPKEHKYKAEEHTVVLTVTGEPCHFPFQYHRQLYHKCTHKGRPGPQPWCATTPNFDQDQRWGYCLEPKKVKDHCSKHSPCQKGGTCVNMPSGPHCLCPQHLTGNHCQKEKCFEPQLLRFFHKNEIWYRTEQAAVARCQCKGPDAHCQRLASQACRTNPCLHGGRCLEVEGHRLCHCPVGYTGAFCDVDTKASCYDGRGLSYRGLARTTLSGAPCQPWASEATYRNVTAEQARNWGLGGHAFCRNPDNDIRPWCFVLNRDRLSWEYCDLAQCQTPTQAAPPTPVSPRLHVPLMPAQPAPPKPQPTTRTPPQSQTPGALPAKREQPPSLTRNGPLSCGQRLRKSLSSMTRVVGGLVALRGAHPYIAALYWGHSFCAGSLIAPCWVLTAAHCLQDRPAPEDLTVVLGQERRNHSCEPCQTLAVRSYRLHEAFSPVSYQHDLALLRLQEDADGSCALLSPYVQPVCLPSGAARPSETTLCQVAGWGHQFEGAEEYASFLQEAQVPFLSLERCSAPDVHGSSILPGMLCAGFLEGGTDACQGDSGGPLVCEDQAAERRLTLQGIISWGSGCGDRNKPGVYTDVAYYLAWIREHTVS

[12] = molecular target: Bovine pancreatic trypsin (Bos taurus) (UniProt P00760)
[13] = molecular target: Factor XIa (Homo sapiens) (UniProt P03951)
UniProt P03951, sequence (P03951 388-625): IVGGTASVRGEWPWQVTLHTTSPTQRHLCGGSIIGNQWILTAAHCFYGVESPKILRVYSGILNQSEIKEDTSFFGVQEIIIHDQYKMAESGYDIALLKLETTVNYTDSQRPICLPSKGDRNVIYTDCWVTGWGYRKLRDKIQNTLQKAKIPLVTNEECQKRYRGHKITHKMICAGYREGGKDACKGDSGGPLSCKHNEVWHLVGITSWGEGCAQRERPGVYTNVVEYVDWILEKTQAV

Substance: Ragi bifunctional alpha-amylase/trypsin inhibitor (RBI) (from UniProt P01087)
Ki [1]: 0.011 µM
Ki [2]: 0.0012 µM

Substance: Corn Hageman factor inhibitor (CHFI) (from UniProt P01088)
Ki [11]: 0.001 µM
Ki [12]: 0.0021 µM
Ki [13]: 5.4 µM

Continued, values first:

Ki [3]: 0.00013 µM
Substance: 0.28 alpha-amylase inhibitor (WMAI-1) (from UniProt P01083)

Kd [4]: 0.34 µM
Kd [5]: 0.036 µM
Ki [6]: 0.0104 µM
Ki [7]: 0.6 µM
Substance: CM3 (from UniProt P17314)

Ki [8]: 0.00029 µM
Ki [9]: 0.00085 µM
Ki [10]: 0.0573 µM
Substance: 0.19 alpha-amylase inhibitor (from UniProt P01085)
